The conditions of this series: Homo sapiens, pH 7, 25 °C, Sodium phosphate 20 mM, NaCl 100 mM, transition: 3, reversible: yes, whole UniProt chain shown.

Several values for one entry are separate records, joined by “and”; a condition that tells them apart may be missing. Identical values can stand only once.

B1: Glutathione S-transferase A1 wild type, P08263 (protein)
chain: MAEKPKLHYFNARGRMESTRWLLAAAGVEFEEKFIKSAEDLDKLRNDGYLMFQQVPMVEIDGMKLVQTRAILNYIASKYNLYGKDIKERALIDMYIEGIADLGEMILLLPVCPPEEKDAKLALIKEKIKNRYFPAFEKVLKSHGQDYLVGNKLSRADIHLVELLYYVEELDSSLISSFPLLKALKTRISNLPTVKKFLQPGSPRKPPMDEKSLEEARKIFRF
Regarding B1, the “denaturant midpoint (higher = more stable)” value by setting is: (GdnHCl, Absorbance) 1.5 M and 1.3 M and 2.3 M; (GdnHCl, CD) 2.2 M; (GdnHCl, Fluorescence) 1.8 M and 1.1 M and 2.4 M; (Urea, Absorbance) 4.8 M and 4.1 M; (Urea, CD) 5.3 M and 4.8 M. The unfolding free energy runs as follows: (GdnHCl, Absorbance) 8.96 kcal/mol and 10.2 kcal/mol and 11.8 kcal/mol; (GdnHCl, CD) 17 kcal/mol; (Urea, Absorbance) 14 kcal/mol and 12.7 kcal/mol; (Urea, CD) 19.6 kcal/mol and 17.1 kcal/mol. Further, the denaturant m value was 4.8 kcal/mol/M (GdnHCl, CD); 2.12 kcal/mol/M and 2.31 kcal/mol/M (Urea, Absorbance); 3.38 kcal/mol/M and 3.67 kcal/mol/M (Urea, CD).

These data come from FireProtDB (doi:10.1021/bi000176d).
